The source of these data is the supplement of paper PMC7877785.

± gives the uncertainty stated by the source.

This data set is described as follows: self-splicing fitness, log relative to wild type (ln ratio); higher = more splicing; Tetrahymena group I intron in knt gene, E. coli kanamycin selection, DiMSum; sequences stand for … in CUCUCU…GGAGGGAAAAGUUAUCAGGCAUGCACCUGGUAGCUAGUCUUUAAACCAAUAGAUUGCAUCGGUUUAAAAGGCAAGACCGUCAAAUUGCGGGAAAGGGGUCAACAGCCGUUCAGUACCAAGUCUCAGGGGAAACUUUGAGAUGGCCUUGCAAAGGGUAUGGUAAUAAGCUGACGGACAUGGUCCUAACCACGCAGCCAAGUCCUAAGUCAACAGAUCUUCUGUUGAUAUGGAUGCAGUUCACAGACUAAAUGUCGGUCGGGGAAGAUGUAUUCUUCUCAUAAGAUAUAGUCGGACCUCUCCUUAAUGGGAGCUAGCGGAUGAAGUGAUGCAACACUGGAGCCGCUGGGAACUAAUUUGUAUGCGAAAGUAUAUUGAUUAGUUUUGGAGUACUCGUGGUCG
The essentials:
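Fitness was computed with DiMSum as the error-weighted combination of replicate fold changes, kanamycin versus none, each normalised to wild type. The library randomised all eight intron nucleotides of the P1ex region, with the intron placed in the knt kanamycin-resistance gene on pET-22b(+) in E. coli BL21(DE3). Six replicate transformations were grown overnight at 37°C or 30°C on LB agar with or without 25 μg/mL kanamycin, plus 100 μg/mL carbenicillin, 50 μM IPTG and 0.2% rhamnose. Pooled colonies were amplicon-sequenced on an Illumina HiSeq 2500.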

Consider GCUAAGCAAUAUUACGACAA, for which the “self-splicing fitness (ln)” value (30 °C) is -1.43 ± 0.18 and the “self-splicing fitness (ln)” value (37 °C) is -2.5 ± 0.2.

As for AGGGAGCAAUAUUACGCGUU, the “self-splicing fitness (ln)” value (37 °C) was -2.46 ± 0.44.

With GACUAGCAAUAUUACGUGUC, the “self-splicing fitness (ln)” value (30 °C) was -2.59 ± 0.42. In the case of UAACAGCAAUAUUACGGUGA, the “self-splicing fitness (ln)” value is -1.08 ± 0.075 (30 °C) and -0.658 ± 0.082 (37 °C). The matching figures for CAUCAGCAAUAUUACGUGCA: -3.14 ± 0.21 and -1.97 ± 0.2. In the case of AUGGAGCAAUAUUACGUAUU, the “self-splicing fitness (ln)” value reads like this: (30 °C) -3.29 ± 0.24; (37 °C) -2.21 ± 0.16. The corresponding values for CUGAAGCAAUAUUACGCUAG are -1.1 ± 0.096 and -0.802 ± 0.099. The corresponding values for GAGCAGCAAUAUUACGACUC are -2.56 ± 0.19 and 0.053 ± 0.17.

ACACAGCAAUAUUACGACUA: the “self-splicing fitness (ln)” value was -1.22 ± 0.091 (30 °C) and -0.346 ± 0.084 (37 °C).

As for GCGUAGCAAUAUUACGGAUG, the “self-splicing fitness (ln)” value was -1.41 ± 0.16 (30 °C) and -1.98 ± 0.18 (37 °C). Turning to UUCGAGCAAUAUUACGUAUA, the “self-splicing fitness (ln)” value reads like this: (30 °C) -2.7 ± 0.33; (37 °C) -2.78 ± 0.41. The corresponding values for UGGUAGCAAUAUUACGGCAG are -1.15 ± 0.13 and 0.129 ± 0.17. CCACAGCAAUAUUACGGUAC: the “self-splicing fitness (ln)” value reads like this: (30 °C) -4.19 ± 0.19; (37 °C) -2.55 ± 0.18. AAGCAGCAAUAUUACGACUA: the “self-splicing fitness (ln)” value runs as follows: (30 °C) -0.00923 ± 0.1; (37 °C) -0.791 ± 0.13. UUUAAGCAAUAUUACGGCCA: the “self-splicing fitness (ln)” value runs as follows: (30 °C) -0.688 ± 0.11; (37 °C) -0.335 ± 0.15.

Consider CCUCAGCAAUAUUACGUACU, for which the “self-splicing fitness (ln)” value is -3.42 ± 0.22 (30 °C) and -1.98 ± 0.22 (37 °C). The corresponding values for GACUAGCAAUAUUACGAUAU are -0.566 ± 0.075 and -0.0805 ± 0.1.

For CACGAGCAAUAUUACGCUUU, the “self-splicing fitness (ln)” value is -3.71 ± 0.22 (30 °C) and -2.89 ± 0.2 (37 °C). The matching figures for GGGAAGCAAUAUUACGUUAC: -2.75 ± 0.15 and -1.15 ± 0.14. The corresponding values for AGGGAGCAAUAUUACGAAGU are -2.4 ± 0.37 and -2.14 ± 0.32. Take UAUGAGCAAUAUUACGUGCG: the “self-splicing fitness (ln)” value was -1.06 ± 0.12 (30 °C) and -1.41 ± 0.16 (37 °C). On to AUUAAGCAAUAUUACGAGGG, for which the “self-splicing fitness (ln)” value (37 °C) is -2.96 ± 0.36. Regarding UUACAGCAAUAUUACGCUAA, the “self-splicing fitness (ln)” value runs as follows: (30 °C) -2.01 ± 0.13; (37 °C) -0.87 ± 0.11. The corresponding values for UCUUAGCAAUAUUACGGCGG are -0.64 ± 0.11 and -0.0592 ± 0.13. The corresponding values for UUUUAGCAAUAUUACGGGAC are -2.5 ± 0.26 and -1.83 ± 0.47.

With UCAAAGCAAUAUUACGUCCU, the “self-splicing fitness (ln)” value was -3.34 ± 0.29 (30 °C) and -1.98 ± 0.24 (37 °C). The matching figures for AGGCAGCAAUAUUACGAAAG: -3.39 ± 0.22 and -2.46 ± 0.22. The matching figures for GAAUAGCAAUAUUACGAUGA: -1.2 ± 0.083 and -0.62 ± 0.093. Consider CAUUAGCAAUAUUACGCCUU, for which the “self-splicing fitness (ln)” value is -3.03 ± 0.36 (30 °C) and -1.84 ± 0.21 (37 °C). The corresponding values for UUGAAGCAAUAUUACGUUGU are -2.87 ± 0.11 and -2.24 ± 0.16. The corresponding values for ACCGAGCAAUAUUACGAUUG are -3.69 ± 0.17 and -2.02 ± 0.18. AGUAAGCAAUAUUACGCAUG: the “self-splicing fitness (ln)” value is -3.12 ± 0.17 (30 °C) and -1.95 ± 0.23 (37 °C).

As to CACAAGCAAUAUUACGCGUU, the “self-splicing fitness (ln)” value was -2.55 ± 0.098 (30 °C) and -1.3 ± 0.091 (37 °C). The matching figures for GGUGAGCAAUAUUACGGCGG: -3.44 ± 0.23 and -1.73 ± 0.35. The matching figures for GUUUAGCAAUAUUACGGCGC: 0.141 ± 0.16 and 0.337 ± 0.17. The matching figures for UCUCAGCAAUAUUACGAUUA: -0.806 ± 0.11 and -0.539 ± 0.12. Consider GACCAGCAAUAUUACGGCAG, for which the “self-splicing fitness (ln)” value is -3.74 ± 0.3 (30 °C) and -3.28 ± 0.25 (37 °C). The corresponding values for UAUCAGCAAUAUUACGUAGU are -1.87 ± 0.086 and -1.19 ± 0.08. The corresponding values for UAUAAGCAAUAUUACGCCUG are -0.378 ± 0.13 and 0.297 ± 0.16. The matching figures for UUACAGCAAUAUUACGUAUC: -3.33 ± 0.19 and -3.28 ± 0.24. On to AAAGAGCAAUAUUACGUGGA, for which the “self-splicing fitness (ln)” value (30 °C) is -3.36 ± 0.32 and the “self-splicing fitness (ln)” value (37 °C) was -2.67 ± 0.26. The matching figures for AGGCAGCAAUAUUACGUCUC: -4.52 ± 0.23 and -2.03 ± 0.14. The matching figures for GGAGAGCAAUAUUACGCAGC: -1.26 ± 0.17 and -2.78 ± 0.26. The matching figures for GUAGAGCAAUAUUACGAAGU: -2.46 ± 0.23 and -0.951 ± 0.17.

As for UGCUAGCAAUAUUACGCAGU, the “self-splicing fitness (ln)” value (30 °C) was -3.21 ± 0.31 and the “self-splicing fitness (ln)” value (37 °C) was -2.51 ± 0.43.

On to ACGCAGCAAUAUUACGUGCG, for which the “self-splicing fitness (ln)” value reads like this: (30 °C) -3.58 ± 0.13; (37 °C) -2.85 ± 0.15.

Regarding UGUCAGCAAUAUUACGGGUA, the “self-splicing fitness (ln)” value is -0.294 ± 0.093 (30 °C) and 0.208 ± 0.11 (37 °C). The corresponding values for CGGGAGCAAUAUUACGACGU are -3.47 ± 0.33 and -1.16 ± 0.18. The corresponding values for GCGCAGCAAUAUUACGGCUC are -0.438 ± 0.12 and 0.47 ± 0.15.

As for GGGGAGCAAUAUUACGGAUU, the “self-splicing fitness (ln)” value is -3.35 ± 0.28 (30 °C) and -2.15 ± 0.23 (37 °C).

GACAAGCAAUAUUACGACUC: the “self-splicing fitness (ln)” value worked out at 0.206 ± 0.1 (30 °C) and 0.387 ± 0.12 (37 °C). The matching figures for CGUGAGCAAUAUUACGACUG: -0.73 ± 0.12 and -0.0318 ± 0.16. With CCCAAGCAAUAUUACGAACA, the “self-splicing fitness (ln)” value (30 °C) was -3.02 ± 0.27 and the “self-splicing fitness (ln)” value (37 °C) is -3.04 ± 0.26.

On to CAUGAGCAAUAUUACGAAUU, for which the “self-splicing fitness (ln)” value (30 °C) is -4.16 ± 0.35 and the “self-splicing fitness (ln)” value (37 °C) was -2.49 ± 0.23.

In the case of CGACAGCAAUAUUACGCAGC, where the note is “37 °C”, the “self-splicing fitness (ln)” value is -1.96 ± 0.29. Take AGGGAGCAAUAUUACGGUAA: the “self-splicing fitness (ln)” value (37 °C) is -2.46 ± 0.44. GCGUAGCAAUAUUACGCAAG: the “self-splicing fitness (ln)” value (30 °C) was -3.32 ± 0.41. On to AAGUAGCAAUAUUACGGGAG, for which the “self-splicing fitness (ln)” value reads like this: (30 °C) -4.01 ± 0.27; (37 °C) -2.82 ± 0.23. The corresponding values for UGGAAGCAAUAUUACGGGCA are -0.216 ± 0.083 and -0.335 ± 0.087. The matching figures for AAGAAGCAAUAUUACGUCCC: -1.06 ± 0.16 and 0.89 ± 0.21.

With UGGCAGCAAUAUUACGCGAA, the “self-splicing fitness (ln)” value reads like this: (30 °C) -0.273 ± 0.088; (37 °C) -0.139 ± 0.1. The corresponding values for UCAAAGCAAUAUUACGCUGA are -3.43 ± 0.29 and -1.62 ± 0.23. Regarding CGGAAGCAAUAUUACGGCAU, the “self-splicing fitness (ln)” value runs as follows: (30 °C) -3.02 ± 0.34; (37 °C) -1.55 ± 0.3. The matching figures for GAUUAGCAAUAUUACGUCAC: -2.91 ± 0.28 and -2.2 ± 0.37. The matching figures for GAAAAGCAAUAUUACGGCAG: -3.02 ± 0.25 and -1.96 ± 0.23. The corresponding values for GUAAAGCAAUAUUACGAACU are -0.845 ± 0.11 and -0.0974 ± 0.14.

UGGGAGCAAUAUUACGUCUC: the “self-splicing fitness (ln)” value was -3.13 ± 0.32 (30 °C) and -2.93 ± 0.44 (37 °C).

UCUGAGCAAUAUUACGCCGA: the “self-splicing fitness (ln)” value by setting is: (30 °C) -1.16 ± 0.21; (37 °C) 0.184 ± 0.22.

In the case of GCGAAGCAAUAUUACGUUAA, the “self-splicing fitness (ln)” value is, setting by setting: (30 °C) -1.65 ± 0.18; (37 °C) -1.88 ± 0.23. The corresponding values for CCCCAGCAAUAUUACGGUCA are -2.71 ± 0.16 and -0.931 ± 0.13. ACAUAGCAAUAUUACGCGGU: the “self-splicing fitness (ln)” value was -3.36 ± 0.17 (30 °C) and -2.86 ± 0.26 (37 °C). Turning to GGCCAGCAAUAUUACGUAAG, the “self-splicing fitness (ln)” value was -1.3 ± 0.084 (30 °C) and -1.25 ± 0.15 (37 °C).

In the case of AGAUAGCAAUAUUACGUAAC, the “self-splicing fitness (ln)” value runs as follows: (30 °C) -3.68 ± 0.35; (37 °C) -2.01 ± 0.23. The matching figures for GGGCAGCAAUAUUACGUUCA: -0.593 ± 0.075 and -0.158 ± 0.12. The matching figures for GCAAAGCAAUAUUACGACAU: -0.736 ± 0.012 and -0.158 ± 0.032. The corresponding values for AGGUAGCAAUAUUACGCUGG are -3.816 ± 0.035 and -2.83 ± 0.046. As for CGCGAGCAAUAUUACGACGU, the “self-splicing fitness (ln)” value (30 °C) is -2.39 ± 0.33 and the “self-splicing fitness (ln)” value (37 °C) is -1.08 ± 0.21.
